Drawing on publication PMC10312502, this text covers fold inhibition of eIF1A association with the 40S subunit, koff and persistence of the FRET signal for 1 substance.

As usually defined, the koff is the first-order rate constant of dissociation.

In the test the target is human 40S ribosomal subunit labelled with Cy3 on the N-terminus of uS19 (human) (UniProt P62841). Nature of the test: FRET or BRET.

The substance “Bat-Hp-CoV Nsp1, fluorescently labelled (wild type) (natural protein)” yielded a fold inhibition of eIF1A association with the 40S subunit of more than 2 fold, a koff of less than 0.01 s⁻¹ and a persistence of the FRET signal of more than 100 s.
